The values below come from article PMC11417181.

In assay [1] the target is T1, complement factor H, native glycosylated, full-length, purified from human plasma (human), P08603.
T1 chain: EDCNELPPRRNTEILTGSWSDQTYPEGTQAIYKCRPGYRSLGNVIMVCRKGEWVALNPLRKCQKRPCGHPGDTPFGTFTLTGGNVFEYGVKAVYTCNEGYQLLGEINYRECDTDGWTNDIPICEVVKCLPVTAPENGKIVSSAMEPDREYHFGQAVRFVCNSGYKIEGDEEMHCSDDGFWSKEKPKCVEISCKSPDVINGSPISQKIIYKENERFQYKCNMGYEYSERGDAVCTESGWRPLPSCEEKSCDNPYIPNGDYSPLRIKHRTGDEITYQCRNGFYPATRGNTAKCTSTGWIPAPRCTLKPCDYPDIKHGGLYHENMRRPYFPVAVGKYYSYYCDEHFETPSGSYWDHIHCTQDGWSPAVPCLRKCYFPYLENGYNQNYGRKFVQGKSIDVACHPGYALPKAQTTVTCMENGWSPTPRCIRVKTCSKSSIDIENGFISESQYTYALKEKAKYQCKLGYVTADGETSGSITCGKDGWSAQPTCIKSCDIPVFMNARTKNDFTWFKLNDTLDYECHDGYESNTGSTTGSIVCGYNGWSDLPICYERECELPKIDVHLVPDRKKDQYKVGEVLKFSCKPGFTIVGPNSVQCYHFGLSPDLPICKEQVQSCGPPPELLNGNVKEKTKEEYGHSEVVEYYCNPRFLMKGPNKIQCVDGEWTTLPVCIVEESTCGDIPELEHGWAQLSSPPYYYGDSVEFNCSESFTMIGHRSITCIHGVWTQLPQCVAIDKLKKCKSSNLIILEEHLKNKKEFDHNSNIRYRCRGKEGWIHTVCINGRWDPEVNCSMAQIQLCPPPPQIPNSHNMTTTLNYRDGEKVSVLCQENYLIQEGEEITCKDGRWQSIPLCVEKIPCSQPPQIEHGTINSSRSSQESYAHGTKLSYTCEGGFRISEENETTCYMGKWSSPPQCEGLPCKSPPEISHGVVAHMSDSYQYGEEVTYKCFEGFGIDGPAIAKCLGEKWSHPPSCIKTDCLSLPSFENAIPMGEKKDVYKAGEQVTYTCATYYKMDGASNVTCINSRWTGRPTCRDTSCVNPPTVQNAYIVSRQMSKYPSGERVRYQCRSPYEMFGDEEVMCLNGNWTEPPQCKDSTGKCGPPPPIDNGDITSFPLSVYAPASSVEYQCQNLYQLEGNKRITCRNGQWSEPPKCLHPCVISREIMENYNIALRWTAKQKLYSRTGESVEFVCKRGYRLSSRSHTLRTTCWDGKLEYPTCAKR
The assay is described as follows: AUC; sedimentation velocity of full-length CFH, 20 °C, 40,000 rpm, Hepes buffer, 0.2 to 1.8 mg/ml, c(s) analysis in SEDFIT, proportions from peak integration; monomer to dimer. The following applies: remark: other sources report otherwise.

Assay [2] addresses T1, complement factor H, native …. The assay is described as follows: SPR; Biacore X100, biotinylated glycosylated CFH on a streptavidin chip (781 RU), CFH preparations flowed at 0.01 to 1.8 μM, Hepes buffer, single-cycle, 1:1 steady-state affinity fit. The following applies: remark: other sources report otherwise. On the technique in general: SPR reads the build-up and loss of mass on a sensor chip optically.

As a reminder, the stoichiometry N is a count of units in the complex or per binding partner. The term Kd denotes the concentration at which binding is half-saturated.

B1: complement factor H, native glycosylated, full-length, purified from human plasma, P08603 19-1231 (natural protein)
chain: EDCNELPPRRNTEILTGSWSDQTYPEGTQAIYKCRPGYRSLGNVIMVCRKGEWVALNPLRKCQKRPCGHPGDTPFGTFTLTGGNVFEYGVKAVYTCNEGYQLLGEINYRECDTDGWTNDIPICEVVKCLPVTAPENGKIVSSAMEPDREYHFGQAVRFVCNSGYKIEGDEEMHCSDDGFWSKEKPKCVEISCKSPDVINGSPISQKIIYKENERFQYKCNMGYEYSERGDAVCTESGWRPLPSCEEKSCDNPYIPNGDYSPLRIKHRTGDEITYQCRNGFYPATRGNTAKCTSTGWIPAPRCTLKPCDYPDIKHGGLYHENMRRPYFPVAVGKYYSYYCDEHFETPSGSYWDHIHCTQDGWSPAVPCLRKCYFPYLENGYNQNYGRKFVQGKSIDVACHPGYALPKAQTTVTCMENGWSPTPRCIRVKTCSKSSIDIENGFISESQYTYALKEKAKYQCKLGYVTADGETSGSITCGKDGWSAQPTCIKSCDIPVFMNARTKNDFTWFKLNDTLDYECHDGYESNTGSTTGSIVCGYNGWSDLPICYERECELPKIDVHLVPDRKKDQYKVGEVLKFSCKPGFTIVGPNSVQCYHFGLSPDLPICKEQVQSCGPPPELLNGNVKEKTKEEYGHSEVVEYYCNPRFLMKGPNKIQCVDGEWTTLPVCIVEESTCGDIPELEHGWAQLSSPPYYYGDSVEFNCSESFTMIGHRSITCIHGVWTQLPQCVAIDKLKKCKSSNLIILEEHLKNKKEFDHNSNIRYRCRGKEGWIHTVCINGRWDPEVNCSMAQIQLCPPPPQIPNSHNMTTTLNYRDGEKVSVLCQENYLIQEGEEITCKDGRWQSIPLCVEKIPCSQPPQIEHGTINSSRSSQESYAHGTKLSYTCEGGFRISEENETTCYMGKWSSPPQCEGLPCKSPPEISHGVVAHMSDSYQYGEEVTYKCFEGFGIDGPAIAKCLGEKWSHPPSCIKTDCLSLPSFENAIPMGEKKDVYKAGEQVTYTCATYYKMDGASNVTCINSRWTGRPTCRDTSCVNPPTVQNAYIVSRQMSKYPSGERVRYQCRSPYEMFGDEEVMCLNGNWTEPPQCKDSTGKCGPPPPIDNGDITSFPLSVYAPASSVEYQCQNLYQLEGNKRITCRNGQWSEPPKCLHPCVISREIMENYNIALRWTAKQKLYSRTGESVEFVCKRGYRLSSRSHTLRTTCWDGKLEYPTCAKR
modifications: here or on the partner: eight N-linked biantennary complex-type glycans, among them those at Asn1011 (SCR-17) and Asn1077 (SCR-18); eight N-linked biantennary complex-type glycans, among them those at Asn1011 (SCR-17) and Asn1077 (SCR-18)
In assay [1], B1 showed a proportion of dimer of 4% and a stoichiometry N of 2. In assay [2], the Kd was 1600 nM.
